# Test results taken from patent publication US20140328939A1, “METHOD FOR PREPARING BIOCOMPATIBLE SMALL INTESTINAL MUCOSA HYDROGEL CAPABLE OF CONTROLLING IN-VIVO DEGRADATION PERIOD” (AJOU UNIVERSITY INDUSTRY-ACADEMIC COOPERATION FOUNDATION, priority 2011, published 2014).
# Test: In-vivo drug release test (FITC-labeled albumin)
# Conditions: 0.5 mL subcutaneous, SD rats; FITC-BSA 1 mg/mL
# Experimental: The prepared small intestinal submucosa powder was dissolved in phosphate buffered saline to 10, 15 and 20 wt %, respectively, to prepare homogeneous solutions. Then, FITC-labeled albumin (FITC-BSA) was added to a concentration of 1 mg/mL. 0.5 mL of the albumin-containing small intestine submucosa solutions were subcutaneously injected to nine SD rats (male, 8 weeks old, 350-380 g) using a syringe (21 G, 1-cc needle). For comparison, 0.5 mL of a solution containing FITC-labeled albumin of the same concentration was subcutaneously injected to three rats. When only albumin was subcutaneously injected, the drug was not released any more after 1 day. In contrast, in case of the albumin-containing small intestinal submucosa hydrogel, the drug was continuously released for about 9 days.
substance,measurement,value
"albumin: FITC-labeled albumin (FITC-BSA) solution, model drug injected alone for comparison",duration of drug release (albumin concentration in blood),≤ 1 days
